Reference: patent publication US6861578B1, “Method for plant protection against insects or nematodes by transformation with a nucleic acid encoding equistatin” (Plant Research International B.V., priority 1997, dated 2005)

What was measured:
[1] = target: T1, cathepsin D (Homo sapiens, UniProt P07339); experiment: steady state inhibition of cathepsin D hydrolysis of chromophoric substrate
[2] = target: T1, cathepsin D; experiment: active site titration of cathepsin D with equistatin (FIG. 12)
[3] = target: potato protease inhibitor-insensitive cysteine proteases of Colorado potato beetle (Leptinotarsa decemlineata) larval gut extracts; experiment: cell-based or functional assay
[4] = target: proteases in extracts of adult western flower thrips (Frankliniella occidentalis); experiment: cell-based or functional assay
[5] = target: proteases in extracts of adult leafminer flies (Liriomyza trifolii); experiment: cell-based or functional assay
[6] = target: T2, papain (UniProt P00784 134-345); experiment: continuous rate enzyme inhibition assay with papain
T2 construct: also called cysteine proteinase, papain
T2 sequence (looked up): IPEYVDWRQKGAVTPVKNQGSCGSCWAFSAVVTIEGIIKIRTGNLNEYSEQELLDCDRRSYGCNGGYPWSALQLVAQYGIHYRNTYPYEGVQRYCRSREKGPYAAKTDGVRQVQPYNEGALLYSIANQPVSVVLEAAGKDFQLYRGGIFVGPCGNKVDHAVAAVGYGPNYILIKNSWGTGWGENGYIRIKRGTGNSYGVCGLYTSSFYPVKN

[7] = target: T2, papain; experiment: continuous rate enzyme inhibition assay with papain; Ki = kd/ka
[8] = target: Colorado potato beetle larval gut proteases (total gut extract, pH 3); experiment: cell-based or functional assay
[9] = target: western corn rootworm (Diabrotica virgifera) third instar larval gut proteases; experiment: cell-based or functional assay
[10] = target: T2, papain; experiment: papain titration in microtiter plate, Z-Phe-Arg-pNA substrate
Experimental: In a microtiterplate 20 µl papain solution (a fresh solution of 1 mg/ml (Sigma) in MES buffer titrated with E-64 to determine the active fraction, usually 17%) is combined with 0–80 µl of known protein concentration. MES buffer (50 mM MES, pH 6.5; 0.6 mg/ml L-cysteine; 1 mg/ml BSA fraction V) is added to a final volume of 150 µl. The mixture is incubated for 30 min at room temperature and subsequently 50 µl of substrate solution (60 µl of 15 mg/ml Z-Phe-Arg-pNA dissolved in methanol is diluted in 940 µl MES buffer before use). The plate is immediately placed in the nicrotiterplate reader and measured at 405 nm. Readings up to an OD600 of 0.3 are linear. Rates of change are used to determine the activity with increasing amounts of inhibitor. Results are graphically represented and at stoichiometric concentrations the amount of dissociated complex is determined to determine the apparent equilibrium dissociation constant (Ki). […] The apparent equilibrium dissociation constant for papain was estimated to be 0.6 nM in agreement with the data published for the purified protein (Lenarcic et al. (1997) J. Biol. Chem. 272: 13899–13903.

B1: equistatin, isolated from sea anemone Actinia equina (protein)
chain: SLTLCGGLGASAASGLIGTTVPGCLGTGGPGGLGCTGSTGTCTCVAGAGLGILGTLIAGSPACSAALAALTLCGMMGAIIVAVPGTCGPPSCLAAGSPAGVGCCASAGGCTCVALLGLGLGGTAGGGAPTCGAHLSGCGGAAILAHSASLAVGMPVPGCLGAGSTAPVGCTPSTGTCTCVAGGGVLVPGSAVAPLAPTC
For B1, the Ki [1] was 0.3 nM, the binding stoichiometry (mol equistatin per mol cathepsin D) [2] was 1 and the residual amino-peptidase activity (L-Arg-pNA), equimolar inhibitor (% of residual activity) [3] was 85. For the same binder, the residual amino-peptidase activity (L-Arg-pNA), excess inhibitor (% of residual activity) [3] was 75, the residual broad spectrum endoprotease activity (Z-Phe-Arg-pNA), equimolar inhibitor (% of residual activity) [3] was 30 and the residual broad spectrum endoprotease activity (Z-Phe-Arg-pNA), excess inhibitor (% of residual activity) [3] was 20. The residual general proteolytic activity (azocasein) in excess of inhibitor (% residual activity) [3] was 10, the residual narrow spectrum endoprotease activity (Z-Arg-Arg-pNA), equimolar inhibitor (% of residual activity) [3] was 20 and the residual narrow spectrum endoprotease activity (Z-Arg-Arg-pNA), excess inhibitor (% of residual activity) [3] was -5. For the same binder, the residual tri-peptidil-peptidase and endoprotease activity (pGlu-Phe-Leu-pNA), equimolar inhibitor (% of residual activity) [3] was 10, the residual tri-peptidil-peptidase and endoprotease activity (pGlu-Phe-Leu-pNA), excess inhibitor (% of residual activity) [3] was -5 and the residual protease activity (FITC-hemoglobin), pH 3.5 (% residual activity) [4] was 5. It also gave a residual protease activity (FITC-hemoglobin), pH 3.5 (% residual activity) [5] of 24, a koff [6] of 0.0065 s⁻¹ and a kon [6] of 1.2e+07 M⁻¹ s⁻¹. The Ki [7] was 0.57 nM.

B2: recombinant equistatin (expressed in E. coli from pB3-equistatin, purified on papain-sepharose) (other, not shown: large carriers; small tags and cut ends)
chain: SLTKCQQLQASANSGLIGTYVPQCKETGEFEEKQCWGSTGYCWCVDEDGKEILGTKIRGSPDCSRRKAALTLCQMMQAIIVNVPGWCGPPSCKADGSFDEVQCCASNGECYCVDKKGKELEGTRQQGRPTCERHLSECEEARIKAHSNSLRVEMFVPECLEDGSYNPVQCWPSTGYCWCVDEGGVKVPGSDVRFKRPTC
notes: also called EI
With B2 the inhibition of total protease activity (FITC-hemoglobin), pH 3 [8] was 62 % inhibition, the residual protease activity (FITC-hemoglobin), pH 3 (% residual activity) [8] was 36 and the residual protease activity (FITC-hemoglobin), pH 3 (% residual activity) [9] was 2. The residual protease activity (FITC-hemoglobin), pH 6.5 (% residual activity) [9] was 7 and the Ki [10] was 0.6 nM.
